{
  "source": "patent US20180105584A1",
  "about": "(published 2018)",
  "binders": {"B1": {"name": "10901_QRF (Lys274Gln, His435Arg, Tyr436Phe Fc mutant), CHO expressed IgG1 (antibody)", "heavy": "EVQLVQSGAEVKKPGASVKVSCKASGYTFSHYYMHWVRQAPGQGLEWMGIINPRYGSTSYAQKFQGRVTMTRDTSTSTVYMELSSLRSEDTAVYYCARDGEVGARDLGWFDPWGQGTLVTVSSASTKGPSVFPLAPSSKSTSGGTAALGCLVKDYFPEPVTVSWNSGALTSGVHTFPAVLQSSGLYSLSSVVTVPSSSLGTQTYICNVNHKPSNTKVDKKVEPKSCDKTHTCPPCPAPELLGGPSVFLFPPKPKDTLMISRTPEVTCVVVDVSHEDPEVQFNWYVDGVEVHNAKTKPREEQYNSTYRVVSVLTVLHQDWLNGKEYKCKVSNKALPAPIEKTISKAKGQPREPQVYTLPPSRDELTKNQVSLTCLVKGFYPSDIAVEWESNGQPENNYKTTPPVLDSDGSFFLYSKLTVDKSRWQQGNVFSCSVMHEALHNRFTQKSLSLSPG", "light": "not shown"}},
  "target": "SpA on the surface of live S. aureus TCH1516 (USA300 MRSA strain) (Staphylococcus aureus strain USA300 …, UniProt A0A0H3K686 37-508)",
  "assay": "cell-based or functional assay",
  "data": [
    {"binder": "B1", "values": [
      {"measurement": "killing of S. aureus in opsonophagocytic killing (OPK) assay with human PMNs", "value": "~80", "unit": "%"}
    ]}
  ]
}
